Results taken from publication PMC5979349, “The Recombinant Inhibitor of DNA Binding Id2 Forms Multimeric Structures via the Helix-Loop-Helix Domain and the Nuclear Export Signal” (International Journal of Molecular Sciences, 2018).

B1: recombinant full-length human Id2 protein, preparation with oligomers of the type Id2nβMEn (natural protein, UniProt Q02363 1-134, looked up)
chain: MKAFSPVRSVRKNSLSDHSLGISRSKTPVDDPMSLLYNMNDCYSKLKELVPSIPQNKKVSKMEILQHVIDYILDLQIALDSHPTIVSLHHQRPGQNQASRTPLTTLNTDISILSLQASEFPSELMSNDSKALCG
modifications: mixed disulfide with βME, as Id2nβMEn (n = 2–4)
notes: the His-tag of pET22b(+) was excluded by a double stop; Another preparation of the same construct as m1; the formula implies one βME for each monomer, so one cysteine of each monomer is free or in an intermolecular disulfide
B2: recombinant full-length human Id2 protein, sample Id2’ (natural protein, UniProt Q02363 1-134, looked up)
chain: B1 chain
modifications: both cysteine residues (Cys-42 and Cys-133) disulfide-bonded to β-mercaptoethanol (βME); one oxidized methionine residue, Met(O)
notes: the His-tag of pET22b(+) was excluded by a double stop; The most homogeneous unlabeled preparation; also called Id2 1–134

Experiments:
[1] = molecular target: the molecule itself; test: MALDI-TOF mass spectrometry; lyophilized protein dissolved in water, α-cyano-4-hydroxycinnamic acid as matrix
[2] = molecular target: the molecule itself; test: dynamic light scattering; Id2’ 80 μM in pure water, 21 °C, two weeks old filtered sample; globular model for molecular weight
[3] = molecular target: the molecule itself; test: NMR diffusion-ordered spectroscopy (DOSY); unlabeled Id2’ at 0.27 mM in H2O/D2O (94:6, v/v); calibration curve with protein standards
[4] = molecular target: the molecule itself; test: dynamic light scattering; Id2’ 80 μM in pure water, 21 °C, measured immediately after filtration (0.2 μm); globular model for molecular weight

Row | Protein | stoichiometry N [1] | stoichiometry N [2] [monomers] | stoichiometry N [3] [monomers] | stoichiometry N [4] [monomers]
1 | B1 | 2 to 4 |  |  | 
2 | B2 |  | 16 | ~16 | 3
